6 molecules from patent US20240392020A1 (JIANGSU HENGRUI PHARMACEUTICALS, published 2024) can be followed below.

Usually EC50 stands for the concentration giving half of the maximal effect. Higher therefore signals weaker potency.

For one test, the target named is T1, hIL-5 (human, UniProt P05113 20-134).
T1 construct: bought
The test is described as follows: ELISA. For orientation: An ELISA detects its analyte on a solid surface through an enzyme-linked reagent.

The target in the next test is T2, hTSLP (human, UniProt Q969D9 29-159).
T2 construct: bought
The test is described as follows: ELISA.

Protocol for hIL-5: (§1) For an antibody targeting a soluble protein, the binding activity of the antibody against the soluble protein was detected by ELISA. […] After the blocking was completed, the blocking solution was discarded; and the plate was washed 3 times with a PBST buffer (pH 7.4, PBS containing 0.1% tween-20). 100 μL of the antibody solution diluted in a gradient was added to each well, and the mixture was incubated at 37° C. for 1 h. After the incubation was completed, the plate was washed 3 times with PBST.
Protocol for hTSLP: as §1

B1: HJ-8 (bispecific antibody, human IgG1, kappa, L234A L235A)
heavy 1: not shown
light 1: DIQMTQSPSSVSASVGDRVTITCRASQDIANYLSWYQQKPGKSPKLLIYGTSNLEVGVPSRFSGSRSGTDFTLTISSLQPEDFATYYCLQDKEFPRTFGGGTKVEIKRTVASSGAPRFLTRPKASVVSVGKDATLSSQIVGNPFPQVSWEKDKQPVTAGVRFRLAQDGDLYRLKILDLQLSDSGQYVSRARNAHGEAFACLGLQVDAEA
heavy 2: EVQLVQSGAEVKKPGSSVKVSCKASGYTFSNYLIEWVRQAPGQGLEWIGVIDPGVGDTNYNENFKGRATLTADKSTSTAYIELSSLRSEDTAVYYCAREDNTGTAFDYWGQGTTVTVSSASTKGPSVFPLAPSSKSTSGGTAALGCLVKDYFPEPVTVSWNSGALTSGVHTFPAVLQSSGLYSLSSVVTVPSSSLGTQTYICNVNHKPSNTKVDKKVEPKSCDKTHTCPPCPAPEAAGGPSVFLFPPKPKDTLMISRTPEVTCVVVDVSHEDPEVKFNWYVDGVEVHNAKTKPREEQYNSTYRVVSVLTVLHQDWLNGKEYKCKVSNKALPAPIEKTISKAKGQPREPQVCTLPPSREEMTKNQVSLSCAVKGFYPSDIAVEWESNGQPENNYKTTPPVLDSDGSFFLVSKLTVDKSRWQQGNVFSCSVMHEALHNHYTQKSLSLSPGK
light 2: SIVMTQTPLSLSVTPGQPASISCKASQSVSSDVTWYLQKPGQSPQLLIYYVSEHYTGVPDRFSGSGYGTDFTLKISRVEAEDVGVYYCQQHHRFPLTFGQGTKLEIKRTVAAPSVFIFPPSDEQLKSGTASVVCLLNNFYPREAKVQWKVDNALQSGNSQESVTEQDSKDSTYSLSSTLTLSKADYEKHKVYACEVTHQGLSSPVTKSFNRGEC
As to B1, the results for the EC50 with hIL-5 and with hTSLP were 18.7 nM and 3.33 nM, respectively.

B2: HJ-9 (bispecific antibody, human IgG1, kappa, L234A L235A)
heavy 1: not shown
light 1: DIQMTQSPSSVSASVGDRVTITCRASQDIANYLSWYQQKPGKSPKLLIYGTSNLEVGVPSRFSGSRSGTDFTLTISSLQPEDFATYYCLQDKEFPRTFGGGTKVEIKRTVASSGAPRFLTCPKASVVSVGKDATLSSQIVGNPFPQVSWEKDKQPVTAGVRFRLAQDGDLYRLKILDLQLSDSGQYVSRARNAHGEAFACLGLQVDAEA
heavy 2: EVQLVQSGAEVKKPGSSVKVSCKASGYTFSNYLIEWVRQAPGQGLEWIGVIDPGVGDTNYNENFKGRATLTADKSTSTAYIELSSLRSEDTAVYYCAREDNTGTAFDYWGQGTTVTVSSASTKGPSVFPLAPSSKSTSGGTAALGCLVKDYFPEPVTVSWNSGALTSGVHTFPAVLQSSGLYSLSSVVTVPSSSLGTQTYICNVNHKPSNTKVDKKVEPKSCDKTHTCPPCPAPEAAGGPSVFLFPPKPKDTLMISRTPEVTCVVVDVSHEDPEVKFNWYVDGVEVHNAKTKPREEQYNSTYRVVSVLTVLHQDWLNGKEYKCKVSNKALPAPIEKTISKAKGQPREPQVCTLPPSREEMTKNQVSLSCAVKGFYPSDIAVEWESNGQPENNYKTTPPVLDSDGSFFLVSKLTVDKSRWQQGNVFSCSVMHEALHNHYTQKSLSLSPGK
light 2: SIVMTQTPLSLSVTPGQPASISCKASQSVSSDVTWYLQKPGQSPQLLIYYVSEHYTGVPDRFSGSGYGTDFTLKISRVEAEDVGVYYCQQHHRFPLTFGQGTKLEIKRTVAAPSVFIFPPSDEQLKSGTASVVCLLNNFYPREAKVQWKVDNALQSGNSQESVTEQDSKDSTYSLSSTLTLSKADYEKHKVYACEVTHQGLSSPVTKSFNRGEC
With B2, the EC50 with hIL-5 was found to be 10.9 nM; in the test with hTSLP it was 3.18 nM.

B3: HJ-10 (bispecific antibody, human IgG1, kappa, L234A L235A)
heavy 1: not shown
light 1: DIQMTQSPSSVSASVGDRVTITCRASQDIANYLSWYQQKPGKSPKLLIYGTSNLEVGVPSRFSGSRSGTDFTLTISSLQPEDFATYYCLQDKEFPRTFGGGTKVEIKRTVASSGAPRFLTRPKASVVSVGKDATLSCQIVGNPFPQVSWEKDKQPVTAGVRFRLAQDGDLYRLKILDLQLSDSGQYVCRARNAHGEAFACLGLQVDAEA
heavy 2: EVQLVQSGAEVKKPGSSVKVSCKASGYTFSNYLIEWVRQAPGQGLEWIGVIDPGVGDTNYNENFKGRATLTADKSTSTAYIELSSLRSEDTAVYYCAREDNTGTAFDYWGQGTTVTVSSASTKGPSVFPLAPSSKSTSGGTAALGCLVKDYFPEPVTVSWNSGALTSGVHTFPAVLQSSGLYSLSSVVTVPSSSLGTQTYICNVNHKPSNTKVDKKVEPKSCDKTHTCPPCPAPEAAGGPSVFLFPPKPKDTLMISRTPEVTCVVVDVSHEDPEVKFNWYVDGVEVHNAKTKPREEQYNSTYRVVSVLTVLHQDWLNGKEYKCKVSNKALPAPIEKTISKAKGQPREPQVCTLPPSREEMTKNQVSLSCAVKGFYPSDIAVEWESNGQPENNYKTTPPVLDSDGSFFLVSKLTVDKSRWQQGNVFSCSVMHEALHNHYTQKSLSLSPGK
light 2: SIVMTQTPLSLSVTPGQPASISCKASQSVSSDVTWYLQKPGQSPQLLIYYVSEHYTGVPDRFSGSGYGTDFTLKISRVEAEDVGVYYCQQHHRFPLTFGQGTKLEIKRTVAAPSVFIFPPSDEQLKSGTASVVCLLNNFYPREAKVQWKVDNALQSGNSQESVTEQDSKDSTYSLSSTLTLSKADYEKHKVYACEVTHQGLSSPVTKSFNRGEC
As for B3, the figures for the EC50 in the test with hIL-5 and with hTSLP were 20.8 nM and 3.17 nM, respectively.

B4: HJ-7 (bispecific antibody, human IgG1, kappa, L234A L235A)
heavy 1: not shown
light 1: DIQMTQSPSSVSASVGDRVTITCRASQDIANYLSWYQQKPGKSPKLLIYGTSNLEVGVPSRFSGSRSGTDFTLTISSLQPEDFATYYCLQDKEFPRTFGGGTKVEIKGGGGSSGAPRFLTRPKASVVSVGKDATLSCQIVGNPFPQVSWEKDKQPVTAGVRFRLAQDGDLYRLKILDLQLSDSGQYVCRARNAHGEAFACLGLQVDAEA
heavy 2: EVQLVQSGAEVKKPGSSVKVSCKASGYTFSNYLIEWVRQAPGQGLEWIGVIDPGVGDTNYNENFKGRATLTADKSTSTAYIELSSLRSEDTAVYYCAREDNTGTAFDYWGQGTTVTVSSASTKGPSVFPLAPSSKSTSGGTAALGCLVKDYFPEPVTVSWNSGALTSGVHTFPAVLQSSGLYSLSSVVTVPSSSLGTQTYICNVNHKPSNTKVDKKVEPKSCDKTHTCPPCPAPEAAGGPSVFLFPPKPKDTLMISRTPEVTCVVVDVSHEDPEVKFNWYVDGVEVHNAKTKPREEQYNSTYRVVSVLTVLHQDWLNGKEYKCKVSNKALPAPIEKTISKAKGQPREPQVCTLPPSREEMTKNQVSLSCAVKGFYPSDIAVEWESNGQPENNYKTTPPVLDSDGSFFLVSKLTVDKSRWQQGNVFSCSVMHEALHNHYTQKSLSLSPGK
light 2: SIVMTQTPLSLSVTPGQPASISCKASQSVSSDVTWYLQKPGQSPQLLIYYVSEHYTGVPDRFSGSGYGTDFTLKISRVEAEDVGVYYCQQHHRFPLTFGQGTKLEIKRTVAAPSVFIFPPSDEQLKSGTASVVCLLNNFYPREAKVQWKVDNALQSGNSQESVTEQDSKDSTYSLSSTLTLSKADYEKHKVYACEVTHQGLSSPVTKSFNRGEC
Consider B4, for which the EC50 worked out at 17.7 nM with hIL-5 and 2.18 nM with hTSLP.

B5: HJ-5 (bispecific antibody, human IgG1, kappa, L234A L235A)
heavy 1: not shown
light 1: DIQMTQSPSSVSASVGDRVTITCRASQDIANYLSWYQQKPGKSPKLLIYGTSNLEVGVPSRFSGSRSGTDFTLTISSLQPEDFATYYCLQDKEFPRTFGGGTKVEIKGGGGSSGAPRFLTRPKASVVSVGKDATLSSQIVGNPFPQVSWEKDKQPVTAGVRFRLAQDGDLYRLKILDLQLSDSGQYVSRARNAHGEAFACLGLQVDAEA
heavy 2: EVQLVQSGAEVKKPGSSVKVSCKASGYTFSNYLIEWVRQAPGQGLEWIGVIDPGVGDTNYNENFKGRATLTADKSTSTAYIELSSLRSEDTAVYYCAREDNTGTAFDYWGQGTTVTVSSASTKGPSVFPLAPSSKSTSGGTAALGCLVKDYFPEPVTVSWNSGALTSGVHTFPAVLQSSGLYSLSSVVTVPSSSLGTQTYICNVNHKPSNTKVDKKVEPKSCDKTHTCPPCPAPEAAGGPSVFLFPPKPKDTLMISRTPEVTCVVVDVSHEDPEVKFNWYVDGVEVHNAKTKPREEQYNSTYRVVSVLTVLHQDWLNGKEYKCKVSNKALPAPIEKTISKAKGQPREPQVCTLPPSREEMTKNQVSLSCAVKGFYPSDIAVEWESNGQPENNYKTTPPVLDSDGSFFLVSKLTVDKSRWQQGNVFSCSVMHEALHNHYTQKSLSLSPGK
light 2: SIVMTQTPLSLSVTPGQPASISCKASQSVSSDVTWYLQKPGQSPQLLIYYVSEHYTGVPDRFSGSGYGTDFTLKISRVEAEDVGVYYCQQHHRFPLTFGQGTKLEIKRTVAAPSVFIFPPSDEQLKSGTASVVCLLNNFYPREAKVQWKVDNALQSGNSQESVTEQDSKDSTYSLSSTLTLSKADYEKHKVYACEVTHQGLSSPVTKSFNRGEC
Take B5: the EC50 with hIL-5 was found to be 16 nM; with hTSLP it was 2.64 nM.

B6: HJ-6 (bispecific antibody, human IgG1, kappa, L234A L235A)
heavy 1: not shown
light 1: DIQMTQSPSSVSASVGDRVTITCRASQDIANYLSWYQQKPGKSPKLLIYGTSNLEVGVPSRFSGSRSGTDFTLTISSLQPEDFATYYCLQDKEFPRTFGGGTKVEIKGGGGSSGAPRFLTCPKASVVSVGKDATLSSQIVGNPFPQVSWEKDKQPVTAGVRFRLAQDGDLYRLKILDLQLSDSGQYVSRARNAHGEAFACLGLQVDAEA
heavy 2: EVQLVQSGAEVKKPGSSVKVSCKASGYTFSNYLIEWVRQAPGQGLEWIGVIDPGVGDTNYNENFKGRATLTADKSTSTAYIELSSLRSEDTAVYYCAREDNTGTAFDYWGQGTTVTVSSASTKGPSVFPLAPSSKSTSGGTAALGCLVKDYFPEPVTVSWNSGALTSGVHTFPAVLQSSGLYSLSSVVTVPSSSLGTQTYICNVNHKPSNTKVDKKVEPKSCDKTHTCPPCPAPEAAGGPSVFLFPPKPKDTLMISRTPEVTCVVVDVSHEDPEVKFNWYVDGVEVHNAKTKPREEQYNSTYRVVSVLTVLHQDWLNGKEYKCKVSNKALPAPIEKTISKAKGQPREPQVCTLPPSREEMTKNQVSLSCAVKGFYPSDIAVEWESNGQPENNYKTTPPVLDSDGSFFLVSKLTVDKSRWQQGNVFSCSVMHEALHNHYTQKSLSLSPGK
light 2: SIVMTQTPLSLSVTPGQPASISCKASQSVSSDVTWYLQKPGQSPQLLIYYVSEHYTGVPDRFSGSGYGTDFTLKISRVEAEDVGVYYCQQHHRFPLTFGQGTKLEIKRTVAAPSVFIFPPSDEQLKSGTASVVCLLNNFYPREAKVQWKVDNALQSGNSQESVTEQDSKDSTYSLSSTLTLSKADYEKHKVYACEVTHQGLSSPVTKSFNRGEC
Consider B6, for which the EC50 with hIL-5 worked out at 37 nM; with hTSLP, 2.88 nM.
